# Experimental data from paper PMC4795164.
# Substrate: N[C@@H](CSSC[C@H](N)C(=O)O)C(=O)O
# Experiment: purified protein
# Assay type: biochemical, Homo sapiens
# Conditions: 100 µM AdoMet, 50 µM PLP, 100 mM HEPES pH 7.4, 37 °C
protein,measurement,value
human CBS (cystathionine beta-synthase) (Homo sapiens) (protein) MPSETPQAEVGPTGCPHRSGPHSAKGSLEKGSPEDKEAKEPLWIRPDAPSRCTWQLGRPASESPHHHTAPAKSPKILPDILKKIGDTPMVRINKIGKKFGLKCELLAKCEFFNAGGSVKDRISLRMIEDAERDGTLKPGDTIIEPTSGNTGIGLALAAAVRGYRCIIVMPEKMSSEKVDVLRALGAEIVRTPTNARFDSPESHVGVAWRLKNEIPNSHILDQYRNASNPLAHYDTTADEILQQCDGKLDMLVASVGTGGTITGIARKLKEKCPGCRIIGVDPEGSILAEPEELNQTEQTTYEVEGIGYDFIPTVLDRTVVDKWFKSNDEEAFTFARMLIAQEGLLCGGSAGSTVAVAVKAAQELQEGQRCVVILPDSVRNYMTKFLSDRWMLQKGFLKEEDLTEKKPWWWHLRVQELGLSAPLTVLPTITCGHTIEILREKGFDQAPVVDEAGVILGMVTLGNMLSSLLAGKVQPSDQVGKVIYKQFKQIRLTDTLGRLSHILEMDHFALVVHEQIQYHSTGKSSQRQMVFGVVTAIDLLNFVAAQERDQK,Km,1.3 ± 0.1 mM
same,Vmax,0.102 µmol/min/mg
same,kcat,0.11 s⁻¹
same,kcat/Km,85 M⁻¹ s⁻¹
